Assay results: patent US20200010513A1

How the values were obtained:
Test in all cases: cell-based or functional assay
[1] = biological target: TM-CIBN-NES-TEV-N-BLITz-1-tTA
[2] = biological target: TM-CIBN-NES-TEV-N-BLITz-6-tTA
[3] = biological target: TM-CIBN-TEV-N-TEVseq-tTA with intact TEVseq without a fusion to the AsLOV2 protein

NES-CRY2PHR-TEV-C
SEAP assay, fold gene expression by blue light (HEK293T cells) [1]: > 20 fold
SEAP assay, fold gene expression by blue light (HEK293T cells) [2]: > 20 fold
SEAP assay, fold change of gene expression by blue light (HEK293T cells) [3]: 1.4 fold
